The series can be described thus: yeast display, Sf9 membrane polyspecificity reagent, FACS + sequencing; frameworks hold sequencing errors. Summed up:
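Polyreactivity labels are assigned by the sorting gate from which each nanobody was recovered. The gates were low and high (top ~1%), set on anti-HA fluorescence for expression and streptavidin fluorescence for reagent binding. Before sorting, galactose-induced (36–48 hours) yeast display cells were stained for 1 hour at 4 °C with 10% biotinylated, detergent-solubilized Sf9 membrane reagent.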
With “QVQLVESGGGLFQAGGSLRLSCAASGFTFRANAMGWYRQAPGKERELVAVITGSGRTYYADSVKGRFTISRDNAKNTVYLQMNSLKPEDTAVYYCAARAAYRVSSPGYDSWGQGTQVTVSS”, the “polyreactivity (PSR sort gate)” value is “high polyreactivity”.

“QVQLVESGGGLFQAGGSLRLSCAASGGIFFYYAMGGYRQAPGKERELVAAIRTNGGTTYYADSVKGRFTISRDNAKNTVYLQRNRLKTEDTAVYYCPAQPGGYYVRGEFDYWGQGTQVTLSS”: the “polyreactivity (PSR sort gate)” value is given as “low polyreactivity”.

“QVQLVESGGGLFQAGGSLRLSCAASGIIFQRNDMGWYRQAPGKERELVANIRDGGITYADSVKGRFTISRDNAKNTVYLQMNSLKPEDTAVYYCARDDTSPGYCDQSSNAAYYYWGQGTQVTVSS”: the “polyreactivity (PSR sort gate)” value is given as “low polyreactivity”.

Consider “QVQLVESGGGLFQAGGSLRLSCAASGIIFQSYDMAWYRQAPGKERELVAAISRGGGSTYYADSVKGRFTISRDNAKNTVYLQMNSLIPEDTAVYYCAADYRGEYDYWGQGTQVTVSS”, for which the “polyreactivity (PSR sort gate)” value was “low polyreactivity”.

“QVQLVESGGGLFQAGGSLRLSCAASGITFHRYDMVWYRQAPGKERELVADITWCGGSTYYADSVKGRFTISRDNAKNTVYLQMNSLKPEDTAVYYCAADASTYTDTPYDYWGQGSQVTVSS”: the “polyreactivity (PSR sort gate)” value was “low polyreactivity”.

As for “QVQLVESGGGLFQAGGSLRLSCAASGITFPDYAMGWYRQAPGKERELVATISSSGGNTYYADSVKGRFTISRDNAKNTVYLQMNSLKPEDTAVYYCATVSYYLGYDYWGQGTQVTVSS”, the “polyreactivity (PSR sort gate)” value is given as “low polyreactivity”.

For the sequence “QVQLVESGGGLFQAGGSLRLSCAASGLIFGYYDMGWYRQAPGKERELVASISRNGGCTYYADSVKGRFTISRDNAKNTVYLQMNRLKTEDTAVYYCARTGPWARYSHGLYKSDYWGQGTQVTVAS”, the “polyreactivity (PSR sort gate)” value is recorded as “high polyreactivity”.

As to “QVQLVESGGGLFQAGGSLRLSCAASGNIFAYNAMGWYRQAPGKERELVASIRYSGGSTYYADSVKGRFTISRDNAKNTVYLQINSLKPEDTAVYYCAKRGYSSYRTYNYWGQGTQVTVSS”, the “polyreactivity (PSR sort gate)” value is reported as “high polyreactivity”.

With “QVQLVESGGGLFQAGGSLRLSCAASGRIFGLYAMGWYRQAPGKERELVAAISRGGGSTYYADSVKGRFTISRDNAKNTVYLQMNSLKAEDTAFDFCATGLGYFCRLDYWGQGTQLTVSS”, the “polyreactivity (PSR sort gate)” value is “low polyreactivity”.

Turning to “QVQLVESGGGLFQAGGSLRLSCAASGRIFGYNAMAGYRQAPGKERELVAVITYSGGSTYYADSVKGRFTISRDNAKNTVYLQMKSLKPEDTAVYYCIARPIDRYSGSGKQWPDYNYWGQGTQFTVSS”, the “polyreactivity (PSR sort gate)” value was “low polyreactivity”.

Turning to “QVQLVESGGGLFQAGGSLRLSCAASGRIFVFYAMGWYRQAPGKEMELVAAISKSVGPTYYADSVKGRFTISRDYAKNTVYLQMNSLKPEDTAVYYCNKRSASDLWPQYGYWGQGTQVTVSS”, the “polyreactivity (PSR sort gate)” value was “low polyreactivity”.

As to “QVQLVESGGGLFQAGGSLRLSCAASGRIFYYNAMGWYRQAPGKEREFVAAITYRGGSTYYADSVKGRFTISRDNAKITVYLQMNSLKPEDTAVYYCAARSAWQVAPRGRTVAFDYWGQGTQVTVSS”, the “polyreactivity (PSR sort gate)” value is on record as “high polyreactivity”.

As for “QVQLVESGGGLFQAGGSLRLSCAASGRTFDVYDMGWYRQAPGKERELVAAITWSGGSTYYADSVKGRFTISRDNAKNTVYLQMNSLKPEDTAVYYCAAGYYYFWTYDYWGQGTQVTVSS”, the “polyreactivity (PSR sort gate)” value is recorded as “low polyreactivity”.

In the case of “QVQLVESGGGLFQAGGSLRLSCAASGRTFWAYAMGWYRQAPGKERELVAAITTSRGSTNYADSVKGRFTISRDNAKNTVYLQMNSLKPEDTAVYDCNADPTYHVVIGVGYWGQGTQVTVCS”, the “polyreactivity (PSR sort gate)” value is “low polyreactivity”.

Turning to “QVQLVESGGGLFQAGGSLRLSCAASGSIFFENAMGWYRQAPGKEREFVAASTWSAGGRTDYADSVKGRFTISRDNAKTTVYLQMNSLKPEDTAVYYCARYPTNILYIPVRGYTDMDYWGQGTQVTVSW”, the “polyreactivity (PSR sort gate)” value was “low polyreactivity”.

“QVQLVESGGGLFQAGGSLRLSCAASGSIFGKYTMGWYRQAPGKERELVAGITYRAGSTYYADSVKGRFTISRDNAKNTVYLQMNSLKPEDTAVYYCAARFYFRWYYYGSYANYWGQGTQVTVSS”: the “polyreactivity (PSR sort gate)” value is “high polyreactivity”.

“QVQLVESGGGLFQAGGSLRLSCAASGSIFSKYAMAWYRQAPGKERELVAAITLNGGSTYYADSVKGRFTISRDNAKNTVYLQMNSLNPEDTAVYYCAKSDRPWWGYYYQFDYWGQGTQVTVSS”: the “polyreactivity (PSR sort gate)” value is reported as “low polyreactivity”.

In the case of “QVQLVESGGGLFQAGGSLRLSCAASGSIFWSYDMGWYRQAPGKERELVATITSGDSTYYADSVKGRFTISRDNAKNTVYLQMNSLKPEDTAVYYCAAGTYYRRTYWHREYDYWGQGTQVTVSS”, the “polyreactivity (PSR sort gate)” value is on record as “low polyreactivity”.

“QVQLVESGGGLFQAGGSLRLSCAASGSTFGNNAMGWYRQAPGKERELVAAISRSGGNTYYADSVKGRFTISRDNAKNTVYLQMNSLKPEDTAVYYCAAGKLYAAGVYYLRRLYYWGQGTQVTVSS”: the “polyreactivity (PSR sort gate)” value is reported as “high polyreactivity”.

With “QVQLVESGGGLFQAGGSLRLSCAASGSTFRFNAKGWYRQAPGKERQFVAAIRFTGGSTYYADSVKGRFTISRDNAKNTVYLQMNSLKPEDTAVYYCINADEYSTVEYDYWGQGTQVSVSS”, the “polyreactivity (PSR sort gate)” value is given as “low polyreactivity”.

Turning to “QVQLVESGGGLFQAGGSLRLSCAASGSTFVYNDMGWYRKATGKERELVAYISTSGGSTYYADSVKGRFTISRDNAKNTVYLQMNSLKPEDTAVYYCNAKRSGPWFLHVPVYYWGQGTQVTVSS”, the “polyreactivity (PSR sort gate)” value is reported as “low polyreactivity”.

Turning to “QVQLVESGGGLFQAGGSLRLSCAASGSTFYNYAMGWYRQAPGIERELVAAISSGGSTNYADSVKGRFTISRDNAKYTVFLQMNSLKPEDSAVYYCARRHRVYASRNGHDYWGQGTQVTVSS”, the “polyreactivity (PSR sort gate)” value was “low polyreactivity”.

On to “QVQLVESGGGLFQAGGSLRLSCAASGSTFYSYAMGWYRKAPGKERELVAAISRNGGYTYYADSVKGRFTISRDNAKNTVYLQMNSLKPEDTAVYYCAALRYVHGYDYWGQGTQVTGSS”, for which the “polyreactivity (PSR sort gate)” value is “high polyreactivity”.

As for “QVQLVESGGGLFQAGGSLRLSCAASGSTIQQYAMGWYRQAPGKEREFVAAISWRGGRTYYADSVKGRFTISRDNAKNTVYLQMNRLKPEDTAVYYCAVDPSIYRLSAYYYDYWGQGTQVTVSS”, the “polyreactivity (PSR sort gate)” value is given as “low polyreactivity”.

Take “QVQLVESGGGLFQAGGSLRLSCAATGRTIVIYAMRWYRQAPGKERELVAAISFSGDTAYYADSVKGRFTISRDNAKNTVYLQMNSLKPDHTAVYYCAAVTQPWSYYRRDYWGQGTQVTVSS”: the “polyreactivity (PSR sort gate)” value was “high polyreactivity”.

As for “QVQLVESGGGLFQAGGSLRLSCAAYGRTFYVYALGWYRQAPGKEREFVAAITSSGGSTYYADSVKGRFTISRDNAKNTVYLQMNSLKPEDTAVYYCAADDWDWENDYWGQGTQVTVSS”, the “polyreactivity (PSR sort gate)” value is on record as “low polyreactivity”.

Regarding “QVQLVESGGGLFQAGGSLRLSCAPSGHIFFYYTMGWYRPAPGKERELVAGITIGGSTNYADSVKGRFTISRDNAKNTVYLQMNSLKPEDTAVYYCNVVKYVYIYSYWESYYWGQGTQVTVSS”, the “polyreactivity (PSR sort gate)” value is “low polyreactivity”.

Take “QVQLVESGGGLFQAGGSLRLSCAPSGRIFRYNAMGWYRQAPGKERELVASISGSGGSTYYADSVKGRFTISRDNAKNTVYLQMNSLTPEDTAVYYCAAQWRYQYPESLESYYWGQGTQVTVSS”: the “polyreactivity (PSR sort gate)” value is “high polyreactivity”.

As for “QVQLVESGGGLFQARGSLRLSCAASGSTFGFYARGWYRQATGKERELVAASSRGGSTNYADSVKGRFTISRDNAKNTVYLQLNSLKPEDTAGYYCAKAYHATSDYWGQGTQVTVSS”, the “polyreactivity (PSR sort gate)” value was “low polyreactivity”.

Turning to “QVQLVESGGGLFQAVGSLRLSCAASGLFFIKYTMGWYRQAPGKERELFAVISGSGGSTYYADSVKGRFTISRDNAKNTVYLQMNSLKPEDTAVYYCAARSYALGYGGGYWGQGTQVTVSS”, the “polyreactivity (PSR sort gate)” value is given as “high polyreactivity”.

Take “QVQLVESGGGLFQEGGSLRVSCAASGRIFIANAMGWYRQAPGKERELVAAISFSGGSTYYADSVKGRFTISRDNAKSTVYLQLNSLKPEDTAVYFCIKVGIRYYYGYDYWGHGTQVTVSS”: the “polyreactivity (PSR sort gate)” value was “high polyreactivity”.

Regarding “QVQLVESGGGLGQAGCSLRLSCAASGSTFAVYAMGWYRQAPGKERELVATITGSGGSTYYADSVKGRFTISRDNAKNPVYLQMNSLKPEDNAVYYCAAEVVAWSLYEDFKTYDYWGQGTQVTVSS”, the “polyreactivity (PSR sort gate)” value is reported as “low polyreactivity”.

Take “QVQLVESGGGLGQAGGSLRLSCAASGFILRYNAMGWYRQAPGKERELVAAISYTGDRTYYADSVKGRFTISRDNAKNTVYLQMNSLKPEDTAVYYCKAGKGQRALVRIGSKLMYYWGHGTQVTVSS”: the “polyreactivity (PSR sort gate)” value is given as “high polyreactivity”.

As to “QVQLVESGGGLGQAGGSLRLSCAASGITFGDYAMGWYIQAPGKERELVAAISTSGVRTYYADSVKGRFTISRDNAKNTVYLQMNSLKTEDTAVYYCAAKYYGEMYYWGQVTQVTVSS”, the “polyreactivity (PSR sort gate)” value is “low polyreactivity”.

For “QVQLVESGGGLGQAGGSLRLSCAASGLIFSPYDMGWYRQAPGKERELVGAISNGDSTNYADSVKGRFTISRDNAKNTVYLQMNSLKAEDTAVYYCNAAIPSWLEYEYWGQGTQVTVSS”, the “polyreactivity (PSR sort gate)” value was “low polyreactivity”.

“QVQLVESGGGLGQAGGSLRLSCAASGLTFLDYAMGWSRQAPGKERELVAAITSGGSTNYADSVKGRFTISRDKAKNTVYLQMNSLKPEDTAVYYFATDLEVSAYDYWGQGTQVTVSS”: the “polyreactivity (PSR sort gate)” value is listed as “low polyreactivity”.

“QVQLVESGGGLGQAGGSLRLSCAASGNTFWAYAMGWYRQAPGKERELVAGISSRGSRTYFADSVKGRFTISRDNAKNTVYLQMNSLKPEDSAVDFCNALRTPPGYYPPFDYWGEGTQVTVSS”: the “polyreactivity (PSR sort gate)” value was “high polyreactivity”.

In the case of “QVQLVESGGGLGQAGGSLRLSCAASGRIFGYYAMGGYRQAPGKARELVAGIDWSGGNTYYADSVKGRFTISRDNAKNTVYLQMNSLKPEDTAVYYCAKYKGRGDSGYDSWGQGTQVTVSS”, the “polyreactivity (PSR sort gate)” value was “low polyreactivity”.

Regarding “QVQLVESGGGLGQAGGSLRLSCAASGRIFIDYAMGWYRQAPGKERELVAAITYSTGGTYYGDSVKGRFTISRDNAKNTVYLQMNSLKPEDTAVYYCNATYVWPGRRRDGYWGQGTQVTVSS”, the “polyreactivity (PSR sort gate)” value is given as “low polyreactivity”.

As for “QVQLVESGGGLGQAGGSLRLSCAASGRIFVDYAMGWYRQAPGKERELVAAINSGGSTNYADSVKGRFTISRDNAKNTVNLQMNSQKPEDTAVYYCNKDTLVYGYVQDYEYWGQGTQVTVSS”, the “polyreactivity (PSR sort gate)” value is reported as “low polyreactivity”.
